Data as given in patent US20230152325A1, “Active Alpha-5-Beta-1 Integrin As A Biomarker For Enhancing Tumor Treatment Efficacy” (Institute For Cancer Research d/b/a The Research Institute …, priority 2016, published 2023).

Assays:
[1] = target: alpha-5-beta-1 (α5β1) integrin, human (human) (UniProt P08648); experiment: cell-based or functional assay
[2] = tested on: naïve pancreatic fibroblasts cultured within D-ECM; experiment: ECM prompted myofibroblastic maintenance (α-SMA / F-actin immunofluorescence), PDAC model; assay type: cell-based, human
Protocol: (§1) ECM prompted myofibroblastic maintenance. Human naïve or assorted murine fibroblasts were incubated for 45 minutes prior to overnight culturing within assorted ECMs, prepared as above, in the presence or absence of 50 μg/ml SNAKA51, 60 μg/m ALULA, 250 μg/m mAb16, or BMAS diluted as instructed by the manufacturer (Millipore, Temecula, Calif.), IgG control, DMSO or small molecule inhibitors FAK (PF573,228) and SRC family kinases (PP2). ECM-induced phenotypes were assessed via RT-qPCR, Western Blot or immunofluorescence.
(§2) Naïve/innate PDAC and RCC patient harvested fibroblasts were cultured overnight within normal (N-ECM) vs. desmoplastic (D-ECM or DECMs that were produced in the presence or absence of TGFβ1-receptor inhibition (D+TGFβi) or vehicle control (D+DMSO). Alternatively, naïve cells cultured within D-ECMs were treated with either TGFβ1-receptor inhibitor (TGFβ-i), vehicle (DMSO), functional blocking antibodies anti-αvβ5 integrin (alula, αvβ5-i), anti-α5β1 integrin (mAb16, α5β1-i), combinations of both functional blocking antibodies (β5-i+α5-i), functional stabilizing anti α5β1 integrin (SNAKA51; α5β1-act) or non-immunized isotypic antibodies (IgG). All samples were subjected to indirect immunofluorescent labeling of desmoplastic marker α-SMA and counterstained with fluorescently labeled phalloidin to detect actin stress fibers (F-actin) and determine the co-localization ratio. Monochromatic “heat map” images (see, FIG. 2A) represent α-SMA intensity values. A 255 tones intensity scale bar is shown to the right. A summary of all measured values is graphed in FIG. 2B. Additional monochromatic images indicative of double labeled staining for α-SMA and F-actin are in FIG. 2C while levels of total α-SMA localized at corresponding stress fibers are plotted in FIG. 2D. Untreated D-ECM conditions were included in all experiments summarized in this figure and serve as normalization (1 arbitrary unit; a.u.) controls. Matching values including statistical significances are listed in accompanying Table 1. All scale bars represent 50 μm. TGFβ activity was needed to maintain functional D-ECM production but was dispensable when testing D-ECM induced responses, while the later were obstructed by αvβ5 integrin inhibition or active α5β1 integrin stabilization.

[3] = tested on: naïve renal fibroblasts cultured within D-ECM; experiment: ECM prompted myofibroblastic maintenance (α-SMA / F-actin immunofluorescence), RCC model; assay type: cell-based, human; conditions: RCC; naïve cells within D-ECM treated with the agent
Protocol: as §1, §2

[4] = target: alpha-v-beta-5 (αvβ5) integrin, human (human) (UniProt P06756); experiment: cell-based or functional assay
Sequence of UniProt P06756 (P06756 31-1048, chain 1 of 2): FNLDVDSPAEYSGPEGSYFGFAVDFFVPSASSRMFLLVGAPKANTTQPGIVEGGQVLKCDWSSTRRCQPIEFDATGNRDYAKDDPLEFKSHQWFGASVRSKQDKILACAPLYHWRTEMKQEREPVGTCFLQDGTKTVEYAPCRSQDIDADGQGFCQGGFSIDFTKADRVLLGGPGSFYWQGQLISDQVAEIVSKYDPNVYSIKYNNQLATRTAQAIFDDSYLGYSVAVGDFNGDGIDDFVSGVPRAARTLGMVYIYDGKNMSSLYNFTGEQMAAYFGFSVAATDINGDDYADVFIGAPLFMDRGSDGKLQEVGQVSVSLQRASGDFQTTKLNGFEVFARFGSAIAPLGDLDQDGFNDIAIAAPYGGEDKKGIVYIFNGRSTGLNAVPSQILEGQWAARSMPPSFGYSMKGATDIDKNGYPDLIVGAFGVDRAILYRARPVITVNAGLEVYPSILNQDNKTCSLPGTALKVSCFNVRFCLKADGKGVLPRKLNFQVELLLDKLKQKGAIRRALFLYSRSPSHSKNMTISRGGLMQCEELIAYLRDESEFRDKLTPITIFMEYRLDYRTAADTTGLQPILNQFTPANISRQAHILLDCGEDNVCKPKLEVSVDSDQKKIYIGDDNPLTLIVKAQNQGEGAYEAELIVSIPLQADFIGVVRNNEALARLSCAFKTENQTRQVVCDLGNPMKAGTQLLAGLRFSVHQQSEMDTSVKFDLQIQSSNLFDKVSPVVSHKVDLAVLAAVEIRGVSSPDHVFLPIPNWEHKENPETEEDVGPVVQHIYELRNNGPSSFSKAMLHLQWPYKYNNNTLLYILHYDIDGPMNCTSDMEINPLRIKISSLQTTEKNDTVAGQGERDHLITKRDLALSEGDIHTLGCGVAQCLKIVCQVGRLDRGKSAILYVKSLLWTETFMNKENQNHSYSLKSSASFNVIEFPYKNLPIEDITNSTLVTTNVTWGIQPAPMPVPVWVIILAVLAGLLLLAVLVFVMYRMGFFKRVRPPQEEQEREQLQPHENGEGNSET
Sequence of UniProt P06756 (P18084 24-799, chain 2 of 2, further chain): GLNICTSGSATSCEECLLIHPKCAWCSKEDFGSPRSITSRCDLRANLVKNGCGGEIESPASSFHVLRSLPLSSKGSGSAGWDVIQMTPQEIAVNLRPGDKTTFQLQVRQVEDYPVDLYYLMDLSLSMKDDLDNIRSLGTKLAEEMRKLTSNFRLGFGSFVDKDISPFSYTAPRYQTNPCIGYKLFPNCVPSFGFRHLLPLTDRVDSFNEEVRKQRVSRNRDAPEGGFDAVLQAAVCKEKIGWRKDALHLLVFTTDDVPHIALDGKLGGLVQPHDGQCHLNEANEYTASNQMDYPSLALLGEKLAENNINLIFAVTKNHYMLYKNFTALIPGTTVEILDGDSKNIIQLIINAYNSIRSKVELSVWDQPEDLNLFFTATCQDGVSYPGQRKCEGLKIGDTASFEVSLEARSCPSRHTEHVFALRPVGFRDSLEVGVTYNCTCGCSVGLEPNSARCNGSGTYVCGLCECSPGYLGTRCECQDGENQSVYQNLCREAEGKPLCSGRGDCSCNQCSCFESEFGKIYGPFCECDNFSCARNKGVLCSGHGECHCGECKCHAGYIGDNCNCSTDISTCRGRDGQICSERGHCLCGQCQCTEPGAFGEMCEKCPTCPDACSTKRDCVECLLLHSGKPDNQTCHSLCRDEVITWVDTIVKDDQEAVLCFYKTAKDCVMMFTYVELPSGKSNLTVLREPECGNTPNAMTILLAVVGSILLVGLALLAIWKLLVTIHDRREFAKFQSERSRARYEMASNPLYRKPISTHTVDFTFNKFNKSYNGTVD

[5] = target: αvβ5 integrin, murine (murine) (UniProt P43406); experiment: cell-based or functional assay

Sequence of UniProt P08648 (P08648 42-1049, chain 1 of 2): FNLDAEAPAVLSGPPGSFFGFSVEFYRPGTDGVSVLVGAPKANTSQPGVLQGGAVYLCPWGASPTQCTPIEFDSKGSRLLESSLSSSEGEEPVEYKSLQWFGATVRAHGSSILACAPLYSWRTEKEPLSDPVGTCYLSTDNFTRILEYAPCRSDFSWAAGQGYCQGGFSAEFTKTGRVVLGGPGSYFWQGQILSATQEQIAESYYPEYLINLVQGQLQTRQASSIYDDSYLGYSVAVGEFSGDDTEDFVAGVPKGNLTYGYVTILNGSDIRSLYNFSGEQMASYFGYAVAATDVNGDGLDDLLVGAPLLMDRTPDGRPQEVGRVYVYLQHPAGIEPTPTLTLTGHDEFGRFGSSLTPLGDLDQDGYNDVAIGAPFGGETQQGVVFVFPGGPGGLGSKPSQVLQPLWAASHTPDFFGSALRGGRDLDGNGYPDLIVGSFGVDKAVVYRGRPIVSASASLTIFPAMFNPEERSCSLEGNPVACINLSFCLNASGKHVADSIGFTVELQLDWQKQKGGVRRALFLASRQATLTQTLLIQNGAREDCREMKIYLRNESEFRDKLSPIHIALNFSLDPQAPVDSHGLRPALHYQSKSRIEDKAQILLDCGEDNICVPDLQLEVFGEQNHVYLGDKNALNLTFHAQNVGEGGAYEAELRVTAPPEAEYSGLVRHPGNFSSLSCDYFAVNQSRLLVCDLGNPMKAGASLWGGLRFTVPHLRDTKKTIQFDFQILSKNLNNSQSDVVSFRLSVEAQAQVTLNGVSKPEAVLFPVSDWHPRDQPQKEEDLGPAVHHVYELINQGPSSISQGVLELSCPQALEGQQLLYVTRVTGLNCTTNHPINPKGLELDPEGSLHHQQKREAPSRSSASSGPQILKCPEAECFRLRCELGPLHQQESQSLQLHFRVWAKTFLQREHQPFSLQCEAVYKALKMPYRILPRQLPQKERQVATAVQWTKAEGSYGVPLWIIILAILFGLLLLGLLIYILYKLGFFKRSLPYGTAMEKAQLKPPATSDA
Sequence of UniProt P08648 (P05556 21-798, chain 2 of 2, further chain): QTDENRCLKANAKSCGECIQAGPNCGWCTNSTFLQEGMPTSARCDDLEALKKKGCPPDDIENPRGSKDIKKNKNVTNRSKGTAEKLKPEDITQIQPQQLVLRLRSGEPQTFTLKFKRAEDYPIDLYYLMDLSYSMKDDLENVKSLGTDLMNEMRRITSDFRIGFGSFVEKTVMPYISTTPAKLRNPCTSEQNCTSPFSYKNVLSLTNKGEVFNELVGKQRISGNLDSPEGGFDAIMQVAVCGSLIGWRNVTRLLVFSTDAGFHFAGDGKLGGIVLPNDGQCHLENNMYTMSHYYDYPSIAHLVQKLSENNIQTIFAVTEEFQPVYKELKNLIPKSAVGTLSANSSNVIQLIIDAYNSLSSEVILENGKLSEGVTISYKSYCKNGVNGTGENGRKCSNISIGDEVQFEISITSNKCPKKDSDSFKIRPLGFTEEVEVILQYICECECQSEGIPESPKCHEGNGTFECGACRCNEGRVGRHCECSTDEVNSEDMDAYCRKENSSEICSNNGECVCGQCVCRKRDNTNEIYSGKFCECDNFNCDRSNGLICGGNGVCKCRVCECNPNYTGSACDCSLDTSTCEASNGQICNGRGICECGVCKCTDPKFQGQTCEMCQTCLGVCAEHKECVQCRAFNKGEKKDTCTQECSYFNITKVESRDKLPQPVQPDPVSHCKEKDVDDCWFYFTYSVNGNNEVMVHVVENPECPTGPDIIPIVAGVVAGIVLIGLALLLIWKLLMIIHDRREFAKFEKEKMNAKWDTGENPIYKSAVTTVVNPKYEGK

Molecule: mAb16, functional blocking anti-α5β1 integrin antibody
- α-SMA expression, PDAC, median (normalized to untreated D-ECM) [1]: 0.71 a.u.
- α-SMA expression, RCC, median (normalized to untreated D-ECM) [1]: 0.53 a.u.
- α-SMA stress fiber localization under FAK inhibitor PF573,228, PDAC [1]: 49%
- α-SMA stress fiber localization under FAK inhibitor PF573,228, RCC [1]: 45%
- α-SMA stress fiber localization, PDAC, median (normalized to untreated D-ECM) [1]: 0.77 a.u.
- α-SMA stress fiber localization, RCC, median (normalized to untreated D-ECM) [1]: 0.89 a.u.

Molecule: CC(C)(C)n1nc(-c2ccc(Cl)cc2)c2c(N)ncnc21 [PP2]
- D-ECM induced myofibroblastic phenotype (α-SMA expression / stress fiber localization), in words ([2]; PDAC, naïve cells within D-ECM treated with the agent): D-ECM-induced phenotype was lost
- D-ECM induced myofibroblastic phenotype (α-SMA expression / stress fiber localization), in words [3]: D-ECM-induced phenotype was lost

Molecule: C[C@@H]1C[C@@H]([C@H](O)CC2CC(=O)NC(=O)C2)C(=O)[C@@H](C)C1 [cycloheximide]
- α-SMA protein outcome in naïve fibroblasts re-plated in D-ECM, in words ([2]; overnight treatment with protein synthesis inhibitor, model not specified): did not influence outcomes

Molecule: ALULA, functional-blocking anti αvβ5 integrin antibody
- intracellular levels of α5β1 integrin activity, PDAC [4]: 0%
- intracellular levels of α5β1 integrin activity, RCC [4]: 60%
- α5β1 integrin activity localized away from 3D-adhesions, PDAC (relative to D-ECM, a.u.=1) [4]: 0.32 a.u.
- α5β1 integrin activity localized away from 3D-adhesions, RCC (relative to D-ECM, a.u.=1) [4]: 0.82 a.u.
- α-SMA expression, PDAC, median (normalized to untreated D-ECM) [4]: 0.29 a.u.
- α-SMA expression, RCC, median (normalized to untreated D-ECM) [4]: 0.58 a.u.
- α-SMA stress fiber localization, PDAC, median (normalized to untreated D-ECM) [4]: 0.54 a.u.
- α-SMA stress fiber localization, RCC, median (normalized to untreated D-ECM) [4]: 0.67 a.u.
- percentage of FAK-/- murine fibroblasts in mD-ECM undergoing myofibroblastic activation [5]: 14%
- percentage of murine cells in mD-ECM with myofibroblast activation under FAK inhibitor PF573,228 [5]: 23%
- percentage of murine fibroblasts in mD-ECM undergoing myofibroblastic activation [5]: 55%

Molecule: SNAKA51, conformation-dependent anti-active α5 integrin functional antibody
- α-SMA expression, PDAC, median (normalized to untreated D-ECM) [1]: 0.32 a.u.
- α-SMA expression, RCC, median (normalized to untreated D-ECM) [1]: 0.43 a.u.
- α-SMA stress fiber localization, PDAC, median (normalized to untreated D-ECM) [1]: 0.56 a.u.
- α-SMA stress fiber localization, RCC, median (normalized to untreated D-ECM) [1]: 0.93 a.u.
